Molecular target: anti-TSLP-scFv-Fc-M4 (mutated recombinant antibody) (human)
Test: BLI

- fold change of affinity against scFv-Fc-84: 10 fold
Substance: thymic stromal lymphopoietin (TSLP), standard recombinant human TSLP protein (from UniProt Q969D9 29-159) (ligand)

From PMC6947841
